Legend:
Assay in all cases: -; previously described evasin
CCL3L1_HUMAN = target: CCL3L1_HUMAN
CXCL1_HUMAN = target: CXCL1_HUMAN
CCL26_HUMAN = target: CCL26_HUMAN
CCL14_HUMAN = target: CCL14_HUMAN
CCL16_HUMAN = target: CCL16_HUMAN
CCL23_HUMAN = target: CCL23_HUMAN
CCL7_HUMAN = target: CCL7_HUMAN
CCL21_HUMAN = target: CCL21_HUMAN
CCL24_HUMAN = target: CCL24_HUMAN

Which Kd (CCL3L1_HUMAN) does the source give for EVASIN1 here?
Its Kd is 0.05 nM.

With EVASIN3 as the substance, how does the Kd (CXCL1_HUMAN) read?
The Kd was 0.85 nM.

EVASIN4 was tested. Which Kd (CCL26_HUMAN) did it give?
The Kd was 0.88 nM.

What about the Kd (CCL14_HUMAN) of the same substance?
The Kd was 0.14 nM.

What about the Kd (CCL16_HUMAN) of the same substance?
Its Kd is 0.26 nM.

What about the Kd (CCL23_HUMAN) of the same substance?
The Kd was 4.43 nM.

And the Kd (CCL7_HUMAN)?
Its Kd is 0.7 nM.

And the Kd (CCL21_HUMAN)?
Its Kd is 0.01 nM.

What about the Kd (CCL24_HUMAN) of the same substance?
Its Kd is 0.41 nM.
